For 39 molecules, normalised SPOT signal, Boehringer light units (BLU); mean over the file's lines of this peptide results are on record in publication PMC314469, “Protein Interaction Networks by Proteome Peptide Scanning” (PLoS Biology, 2004).

T1: Abp1 SH3 (ABP1_YEAST), P15891
T1 chain: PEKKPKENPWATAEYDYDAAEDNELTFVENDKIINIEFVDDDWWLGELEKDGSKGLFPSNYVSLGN

In this test the target is T1, Abp1 SH3 (ABP1_YEAST), P15891. Description: SPOT array.
With ERRKQLKKQGPKRP [YKL032C 351-364], the normalised SPOT signal, Boehringer light units (BLU); mean over the file's lines of this peptide stood at 77.9.
For FFPNVNSPSVNKP [YNR045W 370-382] the value was 101; for ETELGHVPLVERP [YDL079C 472-484], 136; for EYKYSRPPYNFKP [YBR043C 498-510], 155.
Then FEKGPRMPSRGRP [YPR171W 143-155], with 2280; and FAEKVGYPVLVRP [YJL130C 1124-1136], with 85.3.
For FASDSLLDLSPIKP [YCL018W 111-124] the value was 73.8; for ETQPIQNFQPPPKP [YBR108W 650-663], 82.5; for ETLWDLPPKFPEKP [YDR444W 182-195], 55.6.
Molecule FFQLPPVSKDPNRP [YML061C 379-392] came in with a normalised SPOT signal, Boehringer light units (BLU); mean over the file's lines of this peptide of 186.
Then ERSKNLIPPAFRP [YGL173C 598-610], with 488.
For FEMVTEVPIPRRP [YGR156W 132-144], the normalised SPOT signal, Boehringer light units (BLU); mean over the file's lines of this peptide came to 526.
ETGVSIKNPRPSRP [YPR096C 4-17] returned a normalised SPOT signal, Boehringer light units (BLU); mean over the file's lines of this peptide of 615.
For ESFRERPLEPPRKP [YDR448W 139-152] the value was 675; for FIDDLKQPKYVRP [YPL070W 96-108], 48.4.
For ETVTNSGGLQPLKP [YOR329C 474-487] the value was 54.3.
Take EVVKILRESNPPRP [YJR010W 379-392]: the normalised SPOT signal, Boehringer light units (BLU); mean over the file's lines of this peptide stood at 39.2.
Then ESKMSLAPHEYKP [YGR097W 219-231], with 97.4; and EVPMFVNPANAKP [YHL038C 181-193], with 70.8.
For FDYIVTREFRPTKP [YOR131C 125-138] the value was 83.2; for ESASHETPTDLRP [YKL204W 262-274], 147.
Then FDGKPTATPSPFRP [YMR153W 197-210], with 101.
The molecule ESLNLQFQAHPPKP [YKR050W 395-408] showed a normalised SPOT signal, Boehringer light units (BLU); mean over the file's lines of this peptide of 27.2.
Then EVRKVYIPKVVKP [YJR143C 526-538], with 250.
For ESIDASKPEKVKP [YFL025C 369-381] the value was 132; for FSYPISSPINFKP [YPR164W 96-108], 115; for ERPLPDLPSTIKP [YKR027W 750-762], 106.
Then FEEPEDFLPPPPKP [YLR285W 14-27], with 55.3.
With EYGHHARPDSKRP [YMR268C 2-14], the normalised SPOT signal, Boehringer light units (BLU); mean over the file's lines of this peptide was 61.2.
Then FGLEQISPAQKKP [YDL217C 6-18], with 63; and FDIVFPAPKGKRP [YBR034C 258-270], with 284; and FDKKNETPRKRKP [YBL046W 314-326], with 173.
Then EVRDLWLSILPTKP [YBR115C 851-864], with 86.6; and ESFSSGSLSPPSRP [YDR348C 88-101], with 48.8.
Then ESLKLYYRHRPQKP [YOL164W 141-154], with 146.
Molecule FASKVNYPVLIRP [YJR109C 723-735] returned a normalised SPOT signal, Boehringer light units (BLU); mean over the file's lines of this peptide of 156.
In turn, ESKLSSLIIPPSKP [YJL193W 97-110] gave a normalised SPOT signal, Boehringer light units (BLU); mean over the file's lines of this peptide of 105.
The molecule EYLDQKNPQKEKP [YDR293C 662-674] gave a normalised SPOT signal, Boehringer light units (BLU); mean over the file's lines of this peptide of 52.7.
For FDSQFSAPFNGRP [YBL014C 791-803] the value was 168.
